According to article PMC6717114:

Tests used:
[1] = target: Mouse Cdh23 EC1-2(D101G) (mouse); assay: single-molecule force spectroscopy
[2] = target: Mouse Cdh23 EC1-2 wild-type (mouse) (UniProt Q99PF4); assay: single-molecule force spectroscopy
Chain of Mouse Cdh23 EC1-2 wild-type (mouse) (Q99PF4 24-228): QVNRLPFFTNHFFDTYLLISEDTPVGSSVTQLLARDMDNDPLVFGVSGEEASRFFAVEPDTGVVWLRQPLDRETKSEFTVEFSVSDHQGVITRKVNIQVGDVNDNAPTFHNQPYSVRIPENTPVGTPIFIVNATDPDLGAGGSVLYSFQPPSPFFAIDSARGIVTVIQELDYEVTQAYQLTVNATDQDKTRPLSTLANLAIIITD

koff [1] | koff [2] | Substance
0.0097 s⁻¹ | – | Mouse Pcdh15 EC1-2 wild-type (from UniProt Q99PJ1-18 27-259) (domain or fragment)
– | 0.044 s⁻¹ | Mouse Pcdh15 EC1-2(D157G) (domain or fragment)
